The data set addresses T1, MBP-CsTBH (TINY BRANCHED HAIR, HD-ZIP) (Cucumis sativus, UniProt A0A0A0LED8 1-240).
T1 sequence: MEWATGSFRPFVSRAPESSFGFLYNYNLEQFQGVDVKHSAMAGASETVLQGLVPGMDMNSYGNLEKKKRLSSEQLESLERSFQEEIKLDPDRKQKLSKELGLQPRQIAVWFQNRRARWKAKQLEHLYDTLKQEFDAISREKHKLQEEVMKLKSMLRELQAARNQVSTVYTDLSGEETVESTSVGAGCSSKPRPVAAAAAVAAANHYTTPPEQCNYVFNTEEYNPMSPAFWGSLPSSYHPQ
In words: EMSA; EMSA kit (Beyotime GS009) reaction buffer, room temperature, 6% native PAGE; salt and pH not stated. Conditions: protein: recombinant; chain copies: 2; blunt.

Data on three molecules can be found in paper PMC10400037, “Novel players in organogenesis and flavonoid biosynthesis in cucumber glandular trichomes”.

B1: CsFLS promoter probe (dsDNA)
DNA 1: AATTTAAAATAATTATTGGGATTTCAAAC
DNA 2: GTTTGAAATCCCAATAATTATTTTAAATT
Turning to B1, the binding result is “binds”.

B2: Cs4CL promoter probe (dsDNA)
DNA 1: CTTCCAAATTAATTATTGTTTTATGCAAA
DNA 2: TTTGCATAAAACAATAATTAATTTGGAAG
For B2, the binding result is listed as “binds”.

B3: CsF3H promoter probe (dsDNA)
DNA 1: GATTTGAGAAAATTATTGGGCTGGATTGT
DNA 2: ACAATCCAGCCCAATAATTTTCTCAAATC
Consider B3, for which the binding result was “binds”.
